Data on one substance can be found in patent US20240059759A1.

Experiment [1] addresses SARS-CoV-2 RBD (SinoBiological, Cat. No. 40592-V02H) (SARS-CoV-2) (UniProt P0DTC2). Briefly: ELISA on RBD. (In an ELISA, binding on a coated surface is turned into a signal by an enzyme label.)
Experiment [2] shares this target.

In general, EC50 refers to the concentration needed to bring the measured effect to its halfway point. Lower therefore signals higher potency in that assay. VHH-72 D61S: the EC50 in experiment [1] amounted to 0.17 µg/mL. For the same substance, the fold enhanced binding in experiment [2] is 3 fold.
